In patent US12655197 (dated 2026) one finds Kd data, which are given here for one molecule.

As a reminder, the Kd is the concentration at which binding is half-saturated. High values mean lower affinity, low ones higher affinity.

The target of the experiment is ProAgio. Description: SPR. In general terms: SPR reads the build-up and loss of mass on a sensor chip optically.

B1: αVβ3 (receptor)
chain 1: FNLDVDSPAEYSGPEGSYFGFAVDFFVPSASSRMFLLVGAPKANTTQPGIVEGGQVLKCDWSSTRRCQPIEFDATGNRDYAKDDPLEFKSHQWFGASVRSKQDKILACAPLYHWRTEMKQEREPVGTCFLQDGTKTVEYAPCRSQDIDADGQGFCQGGFSIDFTKADRVLLGGPGSFYWQGQLISDQVAEIVSKYDPNVYSIKYNNQLATRTAQAIFDDSYLGYSVAVGDFNGDGIDDFVSGVPRAARTLGMVYIYDGKNMSSLYNFTGEQMAAYFGFSVAATDINGDDYADVFIGAPLFMDRGSDGKLQEVGQVSVSLQRASGDFQTTKLNGFEVFARFGSAIAPLGDLDQDGFNDIAIAAPYGGEDKKGIVYIFNGRSTGLNAVPSQILEGQWAARSMPPSFGYSMKGATDIDKNGYPDLIVGAFGVDRAILYRARPVITVNAGLEVYPSILNQDNKTCSLPGTALKVSCFNVRFCLKADGKGVLPRKLNFQVELLLDKLKQKGAIRRALFLYSRSPSHSKNMTISRGGLMQCEELIAYLRDESEFRDKLTPITIFMEYRLDYRTAADTTGLQPILNQFTPANISRQAHILLDCGEDNVCKPKLEVSVDSDQKKIYIGDDNPLTLIVKAQNQGEGAYEAELIVSIPLQADFIGVVRNNEALARLSCAFKTENQTRQVVCDLGNPMKAGTQLLAGLRFSVHQQSEMDTSVKFDLQIQSSNLFDKVSPVVSHKVDLAVLAAVEIRGVSSPDHVFLPIPNWEHKENPETEEDVGPVVQHIYELRNNGPSSFSKAMLHLQWPYKYNNNTLLYILHYDIDGPMNCTSDMEINPLRIKISSLQTTEKNDTVAGQGERDHLITKRDLALSEGDIHTLGCGVAQCLKIVCQVGRLDRGKSAILYVKSLLWTETFMNKENQNHSYSLKSSASFNVIEFPYKNLPIEDITNSTLVTTNVTWGIQPAPMPV
chain 2: GPNICTTRGVSSCQQCLAVSPMCAWCSDEALPLGSPRCDLKENLLKDNCAPESIEFPVSEARVLEDRPLSDKGSGDSSQVTQVSPQRIALRLRPDDSKNFSIQVRQVEDYPVDIYYLMDLSYSMKDDLWSIQNLGTKLATQMRKLTSNLRIGFGAFVDKPVSPYMYISPPEALENPCYDMKTTCLPMFGYKHVLTLTDQVTRFNEEVKKQSVSRNRDAPEGGFDAIMQATVCDEKIGWRNDASHLLVFTTDAKTHIALDGRLAGIVQPNDGQCHVGSDNHYSASTTMDYPSLGLMTEKLSQKNINLIFAVTENVVNLYQNYSELIPGTTVGVLSMDSSNVLQLIVDAYGKIRSKVELEVRDLPEELSLSFNATCLNNEVIPGLKSCMGLKIGDTVSFSIEAKVRGCPQEKEKSFTIKPVGFKDSLIVQVTFDCDCACQAQAEPNSHRCNNGNGTFECGVCRCGPGWLGSQCECSEEDYRPSQQDECSPREGQPVCSQRGECLCGQCVCHSSDFGKITGKYCECDDFSCVRYKGEMCSGHGQCSCGDCLCDSDWTGYYCNCTTRTDTCMSSNGLLCSGRGKCECGSCVCIQPGSYGDTCEKCPTCPDACTFKKECVECKKFDRGALHDENTCNRYCRDEIESVKELKDTGKDAVNCTYKNEDDCVVRFQYYEDSSGKSILYVVEEPECPKGPD
B1 yielded a dissociation constant Kd of 0.12 nM.
